Experiments:
CTLA-4 [1] = biological target: T1, CTLA-4 (human, UniProt P16410 36-223); test: flow cytometry, 11 nM Fc fusion on CHO/CTLA4 transfectants
T1 construct: CHO cells transduced to stably express CTLA-4; also called huCTLA; CHO/CTLA-4
T1 sequence: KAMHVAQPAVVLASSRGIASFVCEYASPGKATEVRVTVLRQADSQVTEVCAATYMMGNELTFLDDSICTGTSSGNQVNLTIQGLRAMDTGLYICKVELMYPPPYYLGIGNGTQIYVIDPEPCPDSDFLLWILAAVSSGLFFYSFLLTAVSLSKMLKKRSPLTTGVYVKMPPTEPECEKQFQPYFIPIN

CD28 [2] = biological target: T2, CD28 (human, UniProt P10747 19-220); test: flow cytometry, 11 nM Fc fusion on Jurkat cells
PD-L1 = biological target: T3, PD-L1 (human, UniProt Q9NZQ7 19-290); test: flow cytometry, K562 cells transduced to express PDL1, anti-Fc antibody-PE
T3 construct: also called huPD-L1
Description: (§1) To assess binding activity, the exemplary formatted stack constructs were incubated with Jurkat cells expressing CD28, the cognate binding partner of CD86, and with K562 cells transduced to express PDL1, the cognate binding partner of PD-1. The cells (50,000 cells/well) were incubated on ice for 30 min with the formatted stack constructs set forth in Table E7 at various concentrations (starting concentration 100 nM, 8 serial 1:4 dilutions titrated down). Cells were then washed with FACS buffer and resuspended with 50 μL anti-Fc antibody-PE for 30 min. Binding was assessed by flow cytometry and Mean Fluorescence Intensity (MFI) was determined.

CD28 [3] = biological target: T2, CD28; test: flow cytometry, Jurkat cells expressing CD28, anti-Fc antibody-PE
Description: as §1

CD28 [4] = biological target: T2, CD28; test: flow cytometry, 25 nM Fc fusion on Jurkat cells
Description: (§2) Binding of the CD86 domain variants described above were assayed for binding to CD28 using Jurkat cells or to CTLA-4 using Chinese Hamster Ovary (CHO) cells that were transduced to stably express CTLA-4 (CHO/CTLA-4). For staining by flow cytometry, approximately 100,000 ligand-expressing cells were incubated with various concentrations of each candidate CD86 variant Fc fusion protein. […] To assess binding, cells were stained with an anti-human Fc secondary antibody (Jackson ImmunoResearch, USA), and samples were analyzed on an LSRII (BD Biosciences, Inc., USA) flow cytometer.
(§3) In the Table, the exemplary amino acid substitutions and insertions in the IgV domain are designated by amino acid position number corresponding to amino acid positions in the respective reference unmodified mature CD86 extracellular domain (ECD) sequence set forth in SEQ ID NO:29. The amino acid position is indicated in the middle, with the corresponding unmodified (e.g. wild-type) amino acid listed before the number and the identified variant amino acid substitution listed after the number. Column 2 sets forth the SEQ ID NO identifier for each variant IgV domain contained in the variant IgV-Fc fusion molecule.

CD28 [5] = biological target: T2, CD28; test: cell-based or functional assay
CTLA-4 [6] = biological target: T1, CTLA-4; test: flow cytometry, 25 nM Fc fusion on CHO/CTLA4 transfectants
Description: as §2, §3

T3 sequence (Q9NZQ7 19-290): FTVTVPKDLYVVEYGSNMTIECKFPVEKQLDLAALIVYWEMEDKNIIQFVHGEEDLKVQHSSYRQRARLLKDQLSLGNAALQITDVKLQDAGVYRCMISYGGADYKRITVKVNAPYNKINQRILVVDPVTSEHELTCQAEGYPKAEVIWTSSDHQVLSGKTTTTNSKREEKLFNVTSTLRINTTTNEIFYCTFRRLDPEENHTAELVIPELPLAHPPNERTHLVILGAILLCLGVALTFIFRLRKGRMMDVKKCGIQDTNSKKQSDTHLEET
T2 sequence (P10747 19-220): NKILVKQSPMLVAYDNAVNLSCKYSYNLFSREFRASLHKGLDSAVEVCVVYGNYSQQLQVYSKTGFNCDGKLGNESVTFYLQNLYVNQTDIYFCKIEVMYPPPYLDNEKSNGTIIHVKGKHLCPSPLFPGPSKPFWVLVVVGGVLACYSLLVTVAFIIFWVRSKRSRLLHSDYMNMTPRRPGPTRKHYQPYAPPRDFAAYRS

Molecule: variant CD86 ECD-Fc Q25L/H90L/P185S/P224L (ECD SEQ ID NO: 116) (Fc fusion)
- Fold Increase over WT CD86 ECD (CTLA-4 [1]): 0.5 fold
- MFI (CTLA-4 [1]): 9360
- MFI (CD28 [2]): 11.9

B1: formatted PD-1-CD86 stack, FIG. 14C format (heterodimer SEQ ID NOs 328 + 330) (Fc fusion)
chain 1: DSPDRPWNPPTFSPALLVVTEGDNATFTCSFSNTSESFVLNWYRMSPSNQTDKLAAFPEDRNQPGQDRRFRVTQLPNGRDYHMSVDRARRNDSGTYLCGAITLAPKVQIDESLRVELRVTERGSGGGGSEPKSSDKTHTCPPCPAPEAEGAPSVFLFPPKPKDTLMISRTPEVTCVVVDVSHEDPEVKFNWYVDGVEVHNAKTKPREEQYNSTYRVVSVLTVLHQDWLNGKEYKCKVSNKALPAPIEKTISKAKGQPREPQVYTLPPCREEMTKNQVSLWCLVKGFYPSDIAVEWESNGQPENNYKTTPPVLDSDGSFFLYSKLTVDKSRWQQGNVFSCSVMHEALHNHYTQKSLSLSPG
chain 2: EPKSSDKTHTCPPCPAPEAEGAPSVFLFPPKPKDTLMISRTPEVTCVVVDVSHEDPEVKFNWYVDGVEVHNAKTKPREEQYNSTYRVVSVLTVLHQDWLNGKEYKCKVSNKALPAPIEKTISKAKGQPREPQVCTLPPSREEMTKNQVSLSCAVKGFYPSDIAVEWESNGQPENNYKTTPPVLDSDGSFFLVSKLTVDKSRWQQGNVFSCSVMHEALHNHYTQKSLSLSPGGGGGSGGGGSGGGGSGGGGSAPLKIQAYFNETADLPCQFANSQNLSLSELVVFWQDQENLVLNEVYLGKEKFDSVHSKYMGRTSFDSDSWTLRLHNLQIKDKGLYRCIILHKKPTGMIRIHQMSSELSVLA
notes: Knobs-into-hole heterodimer
- binding result (PD-L1): binds
- binding result (CD28 [3]): binds

B2: formatted PD-1-CD86 stack, FIG. 14A format, SEQ ID NO: 327 homodimer (Fc fusion)
chain: DSPDRPWNPPTFSPALLVVTEGDNATFTCSFSNTSESFVLNWYRMSPSNQTDKLAAFPEDRNQPGQDRRFRVTQLPNGRDYHMSVDRARRNDSGTYLCGAITLAPKVQIDESLRVELRVTERGSGGGGSEPKSSDKTHTCPPCPAPEAEGAPSVFLFPPKPKDTLMISRTPEVTCVVVDVSHEDPEVKFNWYVDGVEVHNAKTKPREEQYNSTYRVVSVLTVLHQDWLNGKEYKCKVSNKALPAPIEKTISKAKGQPREPQVYTLPPSRDELTKNQVSLTCLVKGFYPSDIAVEWESNGQPENNYKTTPPVLDSDGSFFLYSKLTVDKSRWQQGNVFSCSVMHEALHNHYTQKSLSLSPGGGGGSGGGGSGGGGSGGGGSAPLKIQAYFNETADLPCQFANSQNLSLSELVVFWQDQENLVLNEVYLGKEKFDSVHSKYMGRTSFDSDSWTLRLHNLQIKDKGLYRCIILHKKPTGMIRIHQMSSELSVLA
notes: also called variant PD1 ECD - Fc - variant CD86 IgV
- binding result (PD-L1): binds
- binding result (CD28 [3]): binds

B3: formatted PD-1-CD86 stack, FIG. 14D format (heterodimer SEQ ID NOs 328 + 331) (Fc fusion)
chain 1: DSPDRPWNPPTFSPALLVVTEGDNATFTCSFSNTSESFVLNWYRMSPSNQTDKLAAFPEDRNQPGQDRRFRVTQLPNGRDYHMSVDRARRNDSGTYLCGAITLAPKVQIDESLRVELRVTERGSGGGGSEPKSSDKTHTCPPCPAPEAEGAPSVFLFPPKPKDTLMISRTPEVTCVVVDVSHEDPEVKFNWYVDGVEVHNAKTKPREEQYNSTYRVVSVLTVLHQDWLNGKEYKCKVSNKALPAPIEKTISKAKGQPREPQVYTLPPCREEMTKNQVSLWCLVKGFYPSDIAVEWESNGQPENNYKTTPPVLDSDGSFFLYSKLTVDKSRWQQGNVFSCSVMHEALHNHYTQKSLSLSPG
chain 2: DSPDRPWNPPTFSPALLVVTEGDNATFTCSFSNTSESFVLNWYRMSPSNQTDKLAAFPEDRNQPGQDRRFRVTQLPNGRDYHMSVDRARRNDSGTYLCGAITLAPKVQIDESLRVELRVTERGSGGGGSEPKSSDKTHTCPPCPAPEAEGAPSVFLFPPKPKDTLMISRTPEVTCVVVDVSHEDPEVKFNWYVDGVEVHNAKTKPREEQYNSTYRVVSVLTVLHQDWLNGKEYKCKVSNKALPAPIEKTISKAKGQPREPQVCTLPPSREEMTKNQVSLSCAVKGFYPSDIAVEWESNGQPENNYKTTPPVLDSDGSFFLVSKLTVDKSRWQQGNVFSCSVMHEALHNHYTQKSLSLSPGGGGGSGGGGSGGGGSGGGGSAPLKIQAYFNETADLPCQFANSQNLSLSELVVFWQDQENLVLNEVYLGKEKFDSVHSKYMGRTSFDSDSWTLRLHNLQIKDKGLYRCIILHKKPTGMIRIHQMSSELSVLA
notes: Knobs-into-hole heterodimer
- binding result (PD-L1): binds
- binding result (CD28 [3]): binds

B4: variant CD86 IgV-Fc M60K/H90L (IgV SEQ ID NO: 128) (Fc fusion)
chain: APLKIQAYFNETADLPCQFANSQNQSLSELVVFWQDQENLVLNEVYLGKEKFDSVHSKYKGRTSFDSDSWTLRLHNLQIKDKGLYQCIILHKKPTGMIRIHQMNSELSVLAGSGGGGSEPKSSDKTHTCPPCPAPEAEGAPSVFLFPPKPKDTLMISRTPEVTCVVVDVSHEDPEVKFNWYVDGVEVHNAKTKPREEQYNSTYRVVSVLTVLHQDWLNGKEYKCKVSNKALPAPIEKTISKAKGQPREPQVYTLPPSRDELTKNQVSLTCLVKGFYPSDIAVEWESNGQPENNYKTTPPVLDSDGSFFLYSKLTVDKSRWQQGNVFSCSVMHEALHNHYTQKSLSLSPG
- MFI (CD28 [4]): 20

B5: variant CD86 IgV-Fc Q25L/Q86R/H90L (IgV SEQ ID NO: 126) (Fc fusion)
chain: APLKIQAYFNETADLPCQFANSQNLSLSELVVFWQDQENLVLNEVYLGKEKFDSVHSKYMGRTSFDSDSWTLRLHNLQIKDKGLYRCIILHKKPTGMIRIHQMNSELSVLAGSGGGGSEPKSSDKTHTCPPCPAPEAEGAPSVFLFPPKPKDTLMISRTPEVTCVVVDVSHEDPEVKFNWYVDGVEVHNAKTKPREEQYNSTYRVVSVLTVLHQDWLNGKEYKCKVSNKALPAPIEKTISKAKGQPREPQVYTLPPSRDELTKNQVSLTCLVKGFYPSDIAVEWESNGQPENNYKTTPPVLDSDGSFFLYSKLTVDKSRWQQGNVFSCSVMHEALHNHYTQKSLSLSPG
- Fold Increase over WT CD86 ECD, Jurkat/IL2 Luciferase Assay (10 nM OKT3 + 50 nM CD86 IgV-Fc) (CD28 [5]): 6.1 fold
- Relative luminescence units (RLU), Jurkat/IL2 Luciferase Assay (10 nM OKT3 + 50 nM CD86 IgV-Fc) (CD28 [5]): 800 RLU
- Fold Increase over WT CD86 ECD (CTLA-4 [6]): 1.3 fold
- MFI (CTLA-4 [6]): 4940
- Fold Increase over WT CD86 ECD (CD28 [4]): 128 fold
- MFI (CD28 [4]): 1570

B6: formatted PD-1-CD86 stack, FIG. 14A format, SEQ ID NO: 326 homodimer (Fc fusion)
chain: DSPDRPWNPPTFSPALLVVTEGDNATFTCSFSNTSESFVLNWYRMSPSNQTDKLAAFPEDRNQPGQDRRFRVTQLPNGRDYHMSVDRARRNDSGTYLCGAITLAPKVQIDESLRVELRVTERGSGGGGSEPKSSDKTHTCPPCPAPEAEGAPSVFLFPPKPKDTLMISRTPEVTCVVVDVSHEDPEVKFNWYVDGVEVHNAKTKPREEQYNSTYRVVSVLTVLHQDWLNGKEYKCKVSNKALPAPIEKTISKAKGQPREPQVYTLPPSRDELTKNQVSLTCLVKGFYPSDIAVEWESNGQPENNYKTTPPVLDSDGSFFLYSKLTVDKSRWQQGNVFSCSVMHEALHNHYTQKSLSLSPGGGGGSGGGGSGGGGSGGGGSAPLKIQAYFNETADLPCQFANSQNLSLSELVVFWQDQENLVLNEVYLGKEKFDSVHSKYMGRTSFDSDSWTLRLHNLQIKDKGLYRCIILHKKPTGMIRIHQMSSELSVLANFSQPEIVPISNITENVYINLTCSSIHGYPEPKKMSVLLRTKNSTIEYDGVMQKSQDNVTELYDVSISLSVSFPDVTSNMTIFCILETDKTRLLSSPFSIELEDPQPPPDHIP
notes: also called variant PD1 ECD - Fc - variant CD86 ECD
- binding result (PD-L1): binds
- binding result (CD28 [3]): binds
